Measured values: US20170056327A1 (The Methodist Hospital, priority 2015, published 2017)

Assays:
[1] = system: BRAF, phosphor-BRAF, MEK, phosphor-MEK, ERK, phosphor-ERK in A375 melanoma cells; experiment: Western blot of BRAF pathway proteins after treatment; format: cell-based, human; conditions: delivered by composite with single cargo; siRNA 100 nM, docetaxel 100 nM
Method: The size and zeta potential of the particles were measured by the Zetasizer Nano (Malvern Instruments). The SEM characterization was shown on an ultra-high resolution scanning electron microscope (SEM 230, NovaNano, Hillsboro, Oreg., USA). Western blots were performed using standard protocols on 4%-15% Bio-Rad Mini-Protean TGX Precast Gels (Bio-Rad, Hercules, Calif., USA).

[2] = system: T1, MMP2 substrate peptide AGFSGPLGMWSAGSFG (SEQ ID NO:1)
T1 sequence: AGFSGPLGMWSAGSFG

[3] = molecular target: MMP2 substrate peptide … (SEQ ID NO:1); experiment: cell-based or functional assay

Chain of matrix metalloproteinase-2 (MMP-2) enzyme (P08253 110-660): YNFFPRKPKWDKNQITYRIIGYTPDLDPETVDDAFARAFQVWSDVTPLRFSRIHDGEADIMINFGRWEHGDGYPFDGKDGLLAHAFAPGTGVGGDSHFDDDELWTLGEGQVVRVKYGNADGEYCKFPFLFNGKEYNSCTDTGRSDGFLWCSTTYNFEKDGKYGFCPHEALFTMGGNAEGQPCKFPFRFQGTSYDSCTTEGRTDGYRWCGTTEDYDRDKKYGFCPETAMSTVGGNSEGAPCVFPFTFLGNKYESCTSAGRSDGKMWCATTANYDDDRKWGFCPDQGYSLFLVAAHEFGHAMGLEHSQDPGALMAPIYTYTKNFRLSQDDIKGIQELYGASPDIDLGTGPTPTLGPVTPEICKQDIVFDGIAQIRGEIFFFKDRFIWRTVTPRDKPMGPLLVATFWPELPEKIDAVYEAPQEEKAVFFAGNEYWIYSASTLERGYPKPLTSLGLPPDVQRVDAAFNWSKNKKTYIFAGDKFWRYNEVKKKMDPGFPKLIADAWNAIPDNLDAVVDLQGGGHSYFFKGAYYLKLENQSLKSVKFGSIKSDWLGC

Row | Compound | effect on protein expression of BRAF pathway [1] | coumarin 6 released into buffer within 6 hrs from MSV/Peptide NPs with MMP2 enzyme (2 ug/mL); without MMP2 cleavage only about 40% was released [2] | cellular uptake in A375 cells of stimuli-release particles (MSV/Peptide NPs) relative to non-stimuli-release particles (MSV/NPs), medium with 2 ug/mL MMP2, 6-hrs' incubation [3] | cellular uptake in A375 cells of stimuli-release particles (MSV/Peptide NPs) relative to non-stimuli-release particles (MSV/NPs), medium with 2 ug/mL MMP2, 24-hrs' incubation [3]
1 | 5′-GCUACAGAGAAAUCUCGAU-3′ (listed as RNA, chemistry not given here) [BRAF siRNA] | knockdown BRAF expression and its related phosphor-proteins downstream |  |  | 
2 | CC(=O)O[C@@]12CO[C@@H]1C[C@H](O)[C@@]1(C)C(=O)[C@H](O)C3=C(C)[C@@H](OC(=O)[C@H](O)[C@@H](NC(=O)OC(C)(C)C)c4ccccc4)C[C@@](O)([C@@H](OC(=O)c4ccccc4)[C@H]21)C3(C)C [docetaxel] | decreased the expression of BRAF, phosphor-BRAF and phosphor-MEK, but increased the expression of phosphor-ERK |  |  | 
3 | matrix metalloproteinase-2 (MMP-2) enzyme |  | about 80% of the coumarin 6 was released | 1.2 fold | 1.5 fold
